In patent US20260274966A1:

Target: CD137 on activated CEMT cells (UniProt Q07011)
Assay: Flow cytometry on PMA/ionomycin-activated CEMT cells, protein at 0.48 nM, detection anti-human Fc-FITC; lower panel 'Cell binding - CD137'

CET (antibody)
MFI: 1.07
